Assay results reported in article PMC10319729 (Scientific Reports, 2023).

Molecular target: T1, LGR4 (HA-LGR4) over-expressed on HEK293 cells (UniProt Q9BXB1 25-951)
T1 construct: Plasmid and cell line described in earlier work; also called HEK293-LGR4; full-length LGR4; source: HEK293 cells over-expressing the receptor (HEK293-LGR4), on cells
Test: whole-cell binding, fluorescence plate reader; His-tagged ligand in 3x serial dilution on cells in 96-well plates, on ice 1 h, washed, fixed with 4.2% paraformaldehyde, Alexa488-labeled anti-His antibody; half-maximum binding (KD) from a three-parameter dose-response fit
Details: one partner purified

Kd: 2.2 ± 0.3 nM
B1: R2FuTSP-His (RSPO2 furin domain with TSP domain, His-tagged) (domain or fragment, UniProt Q6UXX9 22-205, looked up)
chain: QGNRWRRSKRASYVSNPICKGCLSCSKDNGCSRCQQKLFFFLRREGMRQYGECLHSCPSGYYGHRAPDMNRCARCRIENCDSCFSKDFCTKCKVGFYLHRGRCFDECPDGFAPLEETMECVEGCEVGHWSEWGTCSRNNRTCGFKWGLETRTRQIVKKPVKDTILCPTIAESRRCKMTMRHCPG
notes: R-spondin 2 (RSPO2), furin domain with the thrombospondin-like (TSP) domain; source: bought: R&D Systems
